Reference: IntAct's records for PubMed 16367866

B1: Translocated intimin receptor Tir (Escherichia coli O127:H6 (strain E2348/69 / EPEC)), B7UM99 (parent)
chain: MPIGNLGNNVNGNHLIPPAPPLPSQTDGAARGGTGHLISSTGALGSRSLFSPLRNSMADSVDSRDIPGLPTNPSRLAAATSETCLLGGFEVLHDKGPLDILNTQIGPSAFRVEVQADGTHAAIGEKNGLEVSVTLSPQEWSSLQSIDTEGKNRFVFTGGRGGSGHPMVTVASDIAEARTKILAKLDPDNHGGRQPKDVDTRSVGVGSASGIDDGVVSETHTSTTNSSVRSDPKFWVSVGAIAAGLAGLAATGIAQALALTPEPDDPTTTDPDQAANAAESATKDQLTQEAFKNPENQKVNIDANGNAIPSGELKDDIVEQIAQQAKEAGEVARQQAVESNAQAQQRYEDQHARRQEELQLSSGIGYGLSSALIVAGGIGAGVTTALHRRNQPAEQTTTTTTHTVVQQQTGGNTPAQGGTDATRAEDASLNRRDSQGSVASTHWSDSSSEVVNPYAEVGGARNSLSAHQPEEHIYDEVAADPGYSVIQNFSGSGPVTGRLIGTPGQGIQSTYALLANSGGLRLGMGGLTSGGESAVSSVNAAPTPGPVRFV
partner: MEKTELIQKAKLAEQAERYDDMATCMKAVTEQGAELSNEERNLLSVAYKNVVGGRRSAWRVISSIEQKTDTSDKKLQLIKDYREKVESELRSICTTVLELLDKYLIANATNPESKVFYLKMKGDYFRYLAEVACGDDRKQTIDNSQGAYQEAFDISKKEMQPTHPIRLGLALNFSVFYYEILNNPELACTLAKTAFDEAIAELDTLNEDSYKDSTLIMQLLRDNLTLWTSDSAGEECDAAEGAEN

Variants of: B1
Details: with 1433t_human YWHAQ

| Variant | effect of a mutation on the interaction |
| --- | --- |
| S434A | with no effect |
| S51A | with no effect |
| S465A | with no effect |
